Test results as given in patent publication US10466252B2, “Methods for selecting protease resistant polypeptides” (Glaxo Group Limited, priority 2008, dated 2019).
Numbering of substitutions follows the chain as printed.

Experiments:
[1] = test system: natural protease acting in E. coli cells; assay: Integrity after expression in E. coli (non reducing SDS-PAGE, mass spectrometry, Edman sequencing); conditions: MS and Edman sequencing
Experimental: Expression was performed by inoculation of a 50 milliliter culture of 2×TY media supplemented with OVERNIGHT EXPRESS™ autoinduction solutions (1 milliliter of Solution 1 (Cat. No. 71298), 2.5 milliliters of Solution 2 (Cat. No. 71299), 50 microliters of Solution 3 (Cat. No 71304), Novagen) and 100 microgram per milliliter of carbenicillin. Culture was carried overnight at 37° C., and then the culture supernatant was clarified by centrifugation at 3700×g for 45 minutes. The expressed protein was then purified from the clarified supernatant using PROTEIN L STREAMLINE™ (GE Healthcare, Cat. No. 28-4058-03, protein L coupled), and eluted from the Protein L using 0.1M glycine pH 2.0, then neutralized using 0.2 volumes of 1M Tris pH 8.0.
After the plasmid DNA pDOM35 comprising sequence of DMS7161 was transformed into BL21(DE3), glycerol stock was prepared from grown colonies, by scraping colonies into minimal media with glucose and addition of glycerol, final conentration of approximately 15%. Expression of DMS7161 was started by inoculation of the glycerol into 50 milliliters of minimal media (DMS7161 A) supplemented in Yeast Extract for final concentration 10 g/liter (DMS7161 B) so as to obtain the starting culture density of OD600=0.024. The culture was grown to OD600 of approximately 1.4 at 30° C., then induced by the addition of 0.1 mM isopropyl-beta-d-thiogalactoside. […]

human GLP-1 receptor = biological target: T1, human GLP-1 receptor (Homo sapiens, UniProt P43220); assay: GLP-1 receptor assay, CHO 6CRE GLP1R cells, luciferase reporter (384-well, STEADY GLO); format: cell-based
T1 construct: expressed in transfected cells; host or cells: CHO K1 (CHO 6CRE GLP1R)
Experimental: Background: GLP-1R is a 7TM G-protein coupled receptor which is expressed on CHO cells. […] CHO cells are stably transfected with the 6CRE/luc reporter gene. […] This then catalyses a reaction with luciferin to produce light which can be measured on a luminometer.
Suspension culture was maintained for forty-eight hours. Cells were then diluted into 15 mM HEPES, 2 mM L glutamine (2.5×10^5 cells/ml) and dispensed into 384-well plates containing 10 ul/well of the compound to be assayed. After the addition of assay controls, plates were returned to the incubator for 3h at 37° C. and 5% CO2. […] Plates were placed in the reader (Packard TopCount) and pre-incubated for 5 minutes prior to reading […] and plotting of results. Compound was assayed at a range of concentrations response curve to be fitted from which pC50s were calculated.

[2] = biological target: T2, GLP-1 receptor (CHO 6CRE GLP1R cells) (Homo sapiens, UniProt P43220); assay: GLP-1 assay, CHO 6CRE GLP1R cells, luciferase reporter (96-well, BRIGHT-GLO); format: cell-based
T2 construct: expressed in transfected cells; host or cells: CHO 6CRE GLP1R cells (CHO K1)
T2 sequence (P43220 24-463): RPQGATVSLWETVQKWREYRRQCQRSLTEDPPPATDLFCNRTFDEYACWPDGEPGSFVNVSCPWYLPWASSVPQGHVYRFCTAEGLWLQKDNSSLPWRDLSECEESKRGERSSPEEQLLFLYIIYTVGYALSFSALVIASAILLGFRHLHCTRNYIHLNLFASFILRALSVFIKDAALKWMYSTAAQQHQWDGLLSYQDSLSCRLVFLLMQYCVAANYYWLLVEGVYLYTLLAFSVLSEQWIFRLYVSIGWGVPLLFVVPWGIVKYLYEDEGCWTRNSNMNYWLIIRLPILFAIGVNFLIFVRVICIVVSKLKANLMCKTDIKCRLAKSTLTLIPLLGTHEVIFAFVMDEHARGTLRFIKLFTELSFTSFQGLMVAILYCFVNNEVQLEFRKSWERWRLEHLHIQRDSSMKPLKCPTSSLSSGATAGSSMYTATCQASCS

T1 sequence (P43220 24-463): as above

B1: DMS7148: *GLP-1 variant (W25-D mutation) fused to ALBUDAB DOM7h-14 by PSS linker; SEQ ID NO: 16 (protein)
chain: HGEGTFTSDVSSYLEGQAAKEFIADLVEGRGPSSDIQMTQSPSSLSASVGDRVTITCRASQWIGSQLSWYQQKPGKAPKLLIMWRSSLQSGVPSRFSGSGSGTDFTLTISSLQPEDFATYYCAQGAALPRTFGQGTKVEIKR
modifications: Source Amino acid sequence of DMS7148 domain antibody made using molecular biology techniques.
integrity / degradation on expression in E. coli [1]: well expressed in E. coli with the majority of material migrating at the expected size | % max response (human GLP-1 receptor; CHO 6CRE GLP1R cells, 3h at 37° C.): 107% | activity in GLP-1 receptor assay compared with GLP-1 peptide (human GLP-1 receptor; FIG. 6): active, however less active than GLP-1 peptide

B2: DMS7161: *GLP-1 variant of DMS7148 fused to DOM7h-14-10 by PSS linker; A = minimal media, B = with Yeast Extract (protein)
chain: B1 chain with A126L, A127R, L128H, R130K
modifications: Source Amino acid sequence of DMS7161 domain antibody made using molecular biology techniques.
notes: *GLP-1 variant of DMS7148 fused to DOM7h-14-10 by PSS linker; A = minimal media, B = with Yeast Extract
integrity / degradation on expression in E. coli [1]: well expressed in E. coli with the majority of material migrating at the expected size | activity compared with DMS7148 [2]: as active as DMS7148
